# Test results as given in PMC8472933.
# Experiments:
# [1] = target: Menangle virus P protein C-terminal region, P209-388 (coiled-coil, linker and binding domain) (Menangle virus); assay: AUC
# [2] = target: Menangle virus P protein C-terminal region, P209-388 (coiled-coil, linker and binding domain) (Menangle virus); assay: SEC-MALLS
substance,measurement,setting,value
"Menangle virus P protein C-terminal region, P209-388 (coiled-coil, linker and binding domain) (domain or fragment)",Kd,[1],58 nM
same,stoichiometry N,[1],4
same,stoichiometry N,[2],4
